According to article PMC5436001:

Biological target: mMyrf N-terminal fragment (from N-terminally tagged wild-type mouse Myrf) (mouse)
Assay: co-IP

Substance: mMyrf N-terminal fragment (from N-terminally tagged wild-type mouse Myrf) (domain or fragment)
- stoichiometry N: 3
